Data as given in US20180201672A1 (ACADEMIA SINICA, published 2018).

T1: interleukin-17 receptor B (IL-17RB), human, endogenous or ectopic full-length on cells (human, UniProt Q9NRM6 18-502)
T1 construct: In the assays the protein stood on human cancer cell lines or tissue sections; also called native IL-17RB; endogenous IL-17RB
T1 sequence: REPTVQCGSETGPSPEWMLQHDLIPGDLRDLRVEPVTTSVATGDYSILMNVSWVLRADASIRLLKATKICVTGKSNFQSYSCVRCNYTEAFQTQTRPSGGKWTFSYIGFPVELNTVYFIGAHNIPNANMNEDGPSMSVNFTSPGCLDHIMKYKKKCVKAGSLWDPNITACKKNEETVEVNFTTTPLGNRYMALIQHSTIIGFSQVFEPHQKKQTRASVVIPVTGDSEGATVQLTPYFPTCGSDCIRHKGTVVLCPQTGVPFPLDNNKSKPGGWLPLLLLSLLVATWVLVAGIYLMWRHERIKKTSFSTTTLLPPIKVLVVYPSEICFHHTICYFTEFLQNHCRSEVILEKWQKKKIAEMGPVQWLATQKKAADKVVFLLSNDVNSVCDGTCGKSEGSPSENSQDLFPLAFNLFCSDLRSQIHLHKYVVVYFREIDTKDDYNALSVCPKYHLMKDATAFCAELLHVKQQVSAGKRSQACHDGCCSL


Biological target: T1, interleukin-17 receptor B (IL-17RB), …
Assay: FACS on IL-17RB expressing pancreatic cancer cell lines (CFPAC-1 WT and KO, HPAF-II; MCF10A negative control)
Method: FIG. 9. Specificity and Binding Efficiency of anti-IL17RB chimeric D9 antibody (cD9). A, the specific recognition of mouse and chimeric D9 antibody to IL-17RB was determined by FACS analysis using IL-17RB expression (WT) and IL-17RB knock-out (KO) pancreatic cancer cell line CFPAC-1. The FACS profiling of no antibody (no staining) or secondary antibody only (2nd Ab only) were served as control. B, the recognition efficiency of mouse and chimeric D9 antibody was measured by FACS analysis using IL-17RB expression pancreatic cancer cell lines, CFPAC-1 and HPAF-II. MCF10A with no IL-17RB expression was served as negative control.

| Binder | binding result |
| --- | --- |
| chimeric monoclonal anti-IL-17RB antibody cD9 (antibody, V domains shown, also called chimeric D9 antibody; mAb cD9) VH: EVQLQQSGPELVKPGASVKISCKTSGYTFTEYTIHWVKQNHGKSLDWIGGINPNNGGTTYNQEFKGKATLTVDKSSSTAYMEFRSLTSEDSAVYYCARSYYGYVDYWGQGTTLTAA VL: QIVLTQSPAIMSASPGEKVTMTCSASSSIYYIHWYQQKSGTSPKRWIYDTSKLASGVPARFSGSGSGTSYSLTISSMEAEDAATYYCQQWSSNPFTFGSGTKLEIK | binds |
| mouse monoclonal anti-IL-17RB antibody D9 (antibody, V domains shown, Mouse monoclonal antibody from a hybridoma, raised against recombinant IL-17RB extracellular domain (amino acids 18-289) made in HEK293 cells; also called mAb D9; mAbD9) VH: EVQLQQSGPELVKPGASVKISCKTSGYTFTEYTIHWVKQNHGKSLDWIGGINPNNGGTTYNQEFKGKATLTVDKSSSTAYMEFRSLTSEDSAVYYCARSYYGYVDYWGQGTTLTAA VL: QIVLTQSPAIMSASPGEKVTMTCSASSSIYYIHWYQQKSGTSPKRWIYDTSKLASGVPARFSGSGSGTSYSLTISSMEAEDAATYYCQQWSSNPFTFGSGTKLEIK | binds |
